# Laboratory results reported in article PMC3912440 (Scientific Reports, 2014).
# Test system: Mononuclear cell-derived human myeloid dendritic cells
# Format: cell-based
# Conditions: 0.02 μM HagB alone
molecule,measurement,value
"HagB: recombinant hemagglutinin B of P. gingivalis, 49.0 kDa protein composed of 350 amino acid residues (protein, left off: His6 (from the vector pQE31), end not stated, state not stated) MTVENLRLQRLQNLEHYRFAKNVLTLCRTANIAKLNPKLPELEKAIEMEDLALNPPVANELTPQVIALDEERDRAYQALMSRVRSYAFDEDSQLRNAAARIEDVAARYGNVIRMNYDKETAAIENFLTDLKGENIRPLVTKLGVTALVDRLEKNNKAFADFFLRRLSTDQRGKYDVKALRAETDRTLVAVVRRMDSIDDMEPSPEIRALIELYNRLVANRRALLARRASYGEAAVEKRRAEIAEMLRPLLARIVEEKKTAVFAGRTLGTGKNRHYLITFVAENGDEEDRWYRINGEQLVYVPEDELPKPKKKKKPASSTDTPSEPPVLPDPSQGGSSSGGGEQGSTGGGL","CCL3/MIP-1α, CCL4/MIP-1β, and TNFα responses induced",strong
same,CSF2/GM-CSF response induced,weaker
